Settings in all cases: protein: recombinant; tags: N-terminal His6, removed by TEV; single strand
Data set [1] has as its target T1, FIR RRM1-2 WT (UniProt Q9UHX1-2 101-293). The experiment in a line: ITC; ITC: 25 mM HEPES pH 7.5, 150 mM NaCl, 0.5 mM TCEP, 20 C; protein 160-240 uM titrated into ssDNA 40-50 uM.
Data set [2] concerns the target T2, FIR RRM1-2 Y115F (UniProt Q9UHX1-2 101-293, Y115F). Described as above.
Data set [3] deals with T2, FIR RRM1-2 Y115F. The experiment in a line: X-ray crystallography (1.65 A); ITC: 25 mM HEPES pH 7.5, 150 mM NaCl, 0.5 mM TCEP, 20 C; protein 160-240 uM titrated into ssDNA 40-50 uM.
Data set [4] deals with T1, FIR RRM1-2 WT. The experiment in a line: X-ray crystallography (2.05 A); ethylene glycol contacts the bound guanine; ITC: 25 mM HEPES pH 7.5, 150 mM NaCl, 0.5 mM TCEP, 20 C; protein 160-240 uM titrated into ssDNA 40-50 uM.

The values below come from article PMC10229228, “Structural insights into a regulatory mechanism of FIR RRM1–FUSE interaction”.

T1 sequence (Q9UHX1 118-310): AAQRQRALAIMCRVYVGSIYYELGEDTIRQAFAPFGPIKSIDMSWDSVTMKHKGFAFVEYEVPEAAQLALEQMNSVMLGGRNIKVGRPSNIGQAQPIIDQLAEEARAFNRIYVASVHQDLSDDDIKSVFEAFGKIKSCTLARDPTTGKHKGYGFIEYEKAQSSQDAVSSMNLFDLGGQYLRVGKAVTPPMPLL
T2 sequence (Q9UHX1 118-310 Y132F): as the sequence (Q9UHX1 118-310) above, with Y15F counted along it

Turning to TTGTTTT (ssDNA), the Kd with FIR RRM1-2 WT [1] is 2 µM.
Still for that read-out and setting: the same measure for TTATTTT (ssDNA): 11 µM.
With TAATTTT (ssDNA), in the data set with FIR RRM1-2 Y115F [2], the Kd was ~6 µM.
On to TTTTTATTTTGTGTT (ssDNA) [FUSE 15-nt], for which the binding result with FIR RRM1-2 Y115F [3] and with FIR RRM1-2 WT [4] was “binds” each time.
